Assays:
[1] = tested on: O=c1ccn([C@@H]2O[C@H](COP(=O)(O)OP(=O)(O)O[C@H]3OC[C@@H](O)[C@H](O)[C@H]3O)[C@@H](O)[C@H]2O)c(=O)[nH]1; assay: cells, lysate or membranes; conditions: antiport, preloaded with 10 mM UMP; 2 min; UDP-Xyl 0-100 μM
Gmt2 = molecular target: T1, Gmt2 (Cryptococcus neoformans, UniProt J9VY61); assay: uptake into reconstituted proteoliposomes, LC-MS/MS; type: biochemical; conditions: 37°C
T1 construct: gene CNAG_03426; full coding region, C-terminal His/V5 tag kept, pYES-DEST52 in S. cerevisiae INVSc1, membrane protein reconstituted into proteoliposomes

Gmt1 = molecular target: T2, Gmt1 (Cryptococcus neoformans, UniProt J9VRU7); assay: as above; type: biochemical; conditions: 37°C
T2 construct: gene CNAG_05817; full coding region, C-terminal His/V5 tag kept, pYES-DEST52 in S. cerevisiae INVSc1, membrane protein reconstituted into proteoliposomes

[2] = antiport, preloaded with 30 mM GMP, 16-substrate mixture, 50 μM each, 10 min
[3] = antiport counter-substrate, 30 mM GMP preloaded, GDP-Man outside

T1 sequence (J9VY61 entry or part of it): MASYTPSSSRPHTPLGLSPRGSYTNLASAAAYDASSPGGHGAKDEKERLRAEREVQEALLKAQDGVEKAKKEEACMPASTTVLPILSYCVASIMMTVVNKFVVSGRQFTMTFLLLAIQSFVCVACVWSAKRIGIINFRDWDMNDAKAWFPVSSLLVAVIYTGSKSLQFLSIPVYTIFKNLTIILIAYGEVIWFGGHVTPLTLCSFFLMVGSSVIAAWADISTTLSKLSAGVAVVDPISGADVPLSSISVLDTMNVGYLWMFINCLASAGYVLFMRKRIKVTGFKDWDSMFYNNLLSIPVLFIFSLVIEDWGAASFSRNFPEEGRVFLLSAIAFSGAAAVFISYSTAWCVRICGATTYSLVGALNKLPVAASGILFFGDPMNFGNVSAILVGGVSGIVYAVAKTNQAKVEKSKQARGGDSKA
T2 sequence (J9VRU7 entry or part of it): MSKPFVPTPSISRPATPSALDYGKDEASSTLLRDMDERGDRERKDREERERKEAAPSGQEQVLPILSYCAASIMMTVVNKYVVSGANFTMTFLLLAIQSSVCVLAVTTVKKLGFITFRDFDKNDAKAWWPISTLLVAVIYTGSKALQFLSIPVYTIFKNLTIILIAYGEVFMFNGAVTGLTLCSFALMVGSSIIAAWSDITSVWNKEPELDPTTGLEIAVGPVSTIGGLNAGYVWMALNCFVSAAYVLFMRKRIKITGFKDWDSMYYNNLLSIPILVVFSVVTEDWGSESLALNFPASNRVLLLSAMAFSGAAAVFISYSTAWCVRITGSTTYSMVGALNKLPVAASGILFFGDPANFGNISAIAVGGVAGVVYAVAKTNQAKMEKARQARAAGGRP

## Uxt2 (Cryptococcus neoformans H99)
[1]
  Km: 2.2 ± 0.5 µM
  kcat: 0.4 s⁻¹

## Nc1nc2c(ncn2[C@@H]2O[C@H](COP(=O)(O)OP(=O)(O)O[C@H]3O[C@H](CO)[C@@H](O)[C@H](O)[C@@H]3O)[C@@H](O)[C@H]2O)c(=O)[nH]1 [GDP-Man]
Gmt2; [2]
  uptake into reconstituted proteoliposomes, LC-MS/MS: Both proteins transported GDP-Man and smaller amounts of other GDP-sugars in exchange for GMP
Gmt1; [2]
  uptake into reconstituted proteoliposomes, LC-MS/MS: Both proteins transported GDP-Man and smaller amounts of other GDP-sugars in exchange for GMP

## Uxt1 (Cryptococcus neoformans H99)
[1]
  Km: 1.0 ± 0.2 µM
  kcat: 0.9 s⁻¹

## Nc1nc2c(ncn2[C@@H]2O[C@H](COP(=O)(O)O)[C@@H](O)[C@H]2O)c(=O)[nH]1 [GMP]
Gmt2; [3]
  uptake into reconstituted proteoliposomes, LC-MS/MS: Both proteins transported GDP-Man and smaller amounts of other GDP-sugars in exchange for GMP
Gmt1; [3]
  uptake into reconstituted proteoliposomes, LC-MS/MS: Both proteins transported GDP-Man and smaller amounts of other GDP-sugars in exchange for GMP

From PMC5773217, “Xylose donor transport is critical for fungal virulence” (PLoS Pathogens, 2018)
